Several values for one entry are separate records, joined by “and”; a condition that tells them apart may be missing. Identical values can stand only once.

For the assay, the target named is T1, SARS-CoV-2 S 2P trimer (S ectodomain, residues 16-1206) (SARS-CoV-2, early isolate GenBank …, UniProt P0DTC2, stabilised).
T1 construct: also called SARS-CoV-2 S protein; SARS-CoV-2 S trimer
Put plainly: cryo-EM structure. The note with it: both partners purified.

B1: C105 Fab (Fab, V domains shown)
VH: QVQLVESGGGLIQPGGSLRLSCAASGFTVSSNYMSWVRQAPGKGLEWVSVIYSGGSTYYADSVKGRFTISRDNSKNTLYLQMNSLRAEDTAVYYCARGEGWELPYDYWGQGTLVTVSS
VL: QSALTQPPSASGSPGQSVTISCTGTSSDVGGYKYVSWYQQHPGKAPKLMIYEVSKRPSGVPDRFSGSKSGNTASLTVSGLQAEDEADYYCSSYEGSNNFVVFGGGTKLTVL
notes: also called mAb C105
Broadly, the stoichiometry N is the number of molecules, sites or subunits per partner or assembly. In the case of B1, the “stoichiometry N” value is 2 Fabs per S trimer and 3 Fabs per S trimer.

The values are drawn from article PMC7311918, “Structures of Human Antibodies Bound to SARS-CoV-2 Spike Reveal Common Epitopes and Recurrent Features of Antibodies” (Cell, 2020).
